test: soluble on expression in E. coli; label from the status in PepcDB or PDB records

| Sequence | soluble on expression in E. coli |
| --- | --- |
| MSLTNKKNLRVVALAPTGRYFASIISSLEILETAAEFAEFQGFMTHVVTPNNRPLIGRGGISVQPTAQWQSFDFTNILIIGSIGDPLESLDNIDPALFDWIRELHLKGSKIVAIDTGIFVVAKAGLLQQNKAVMHSYFAHLFGELFPEIMLMTEQKALIDGNVYLSSGPYSHSSVMLEIVEEYFGKHTRNLGNQFLSTIESSGNSHSYCDVFRYMQHRDELILKIQKWILTTDLDIVSISDLANEACLSERQLKRRFKEATSISPLKFIQLGRLSFAKELLRSTKLSIDEVASRSGYVDTQFFRQIFKRENDCSPLEYRKRNQVKAEGHHHHHH | soluble |
| GMADLTHEFWDRLEDVRSGMLGIKGQGRLIPMSPQTDDDAPGAIWFITAKGTDLAKGVAAGPQPAQFVVSDDGEGLYADLDGTLERSTDREALDEFWSFVADAWFDGGQHDPDVCLLKFTPASGEISITEGGGARFLYEIAKAHLTDETPDMGEQATVTF | soluble |
| GSHMLEFSEWYSDILEKAEIYDVRYPIKGCGVYLPYGFKIRRYTFEIIRNLLDESGHDEALFPMLIPEDLLAKEAEHIKGFEDEVYWVTHGGKTQLDVKLALRPTSETPIYYMMKLWVKVHTDLPIKIYQIVNTFRYETKHTRPLIRLREIMTFKEAHTAHSTKEEAENQVKEAISIYKKFFDTLGIPYLISKRPEWDKFPGAEYTMAFDTIFPDGRTMQIATVHNLGQNFSKTFEIIFETPTGDKDYAYQTCYGISDRVIASIIAIHGDEKGLILPPIVAPIQVVIVPLIFKGKEDIVMEKAKEIYEKLKGKFRVHIDDRDIRPGRKFNDWEIKGVPLRIEVGPKDIENKKITLFRRDTMEKFQVDETQLMEVVEKTLNNIMENIKNRAWEKFENFITILEDINPDEIKNILSEKRGVILVPFKEEIYNEELEEKVEATILGETEYKGNKYIAIAKTY | soluble |
| MGSDKIHHHHHHMGSAAQFRRWIRPSARLCNAPFIRATVQVHWRNLYLLSRRSAPRRFHADQEKDMTPRSIIAAGALFAAVATAPAAWASSTYMGALTEAEVLAAQKAWGEALVAISREHEAGGQAKAKALASTVLDKAYGYNLGPVLFKPTLTMAPQTFRTTKDGALAYFVGGDPNYPNDKGFALQGWRSVAIKNAAIQIHGDVATTTGNVMITDKNGNVTTVDKTWAFKKTDDGAIRIVVHHSSLPYTAK | not soluble |
| MGGSGVEGLSGKRCWLAVRNASLCQFLETSLQRSGIVVTTYEGQEPTPEDVLITDEVVSKKWQGRAVVTFCRRHIGIPLEKAPGEWVHSVAAPHELPALLARIYLIEMESDDPANALPSTDKAVSDNDDMMILVVDDHPINRRLLADQLGSLGYQCKTANDGVDALNVLSKNHIDIVLSDVNMPNMDGYRLTQRIRQLGLTLPVIGVTANALAEEKQRCLESGMDSCLSKPVTLDVIKQTLTLYAERVRKSRDS | soluble |
| MSEKIRVLLYYKYVSIENAQEYAAKHLEFCKSIGLKGRILIADEGINGTVSGDYETTQKYMDWVHSDERFADLWFKIDEENQQAFRKMFVRYKKEIVHLGLEDNNFDSDINPLETTGEYLNPKQFKEALLDEDTVVLDTRNDYEYDLGHFRGAIRPDIRNFRELPQWVRDNKDKFMEKRVVVYCTGGVRCEKFSGWMVREGFKDVGQLHGGIATYGKDPEVQGELWDGAMYVFDDRISVPINHVNPTVISKDYFDGTPCERYVNCANPFCNKQIFASEENETKYVRGCSPECRAHERNRYVQENGLSRQEWAERLEAIGESLPEFVGA | not soluble |
| MSDVAEEKAEFLVIRTYGSESFRKECADLIEKELHKLNATIARVPVGEFVAYAENAVKNETDSEAVGSSSVKRENSANDSPANTNDVDIVSSPVKRGRGRKAKNPSADADVNDTGSSPVKKGRGRPIKNPSADAGSPLVKKGRGRRAQTPAADTDAIDTASSPVKKGRGRPAKNPSADAGSPLVKKGRGRQAKNLAADTDAIDTASSPVKKGRGRPLKKTAAEADVNGLGSPSANRITGCPPSTKVSNQSSPPEPAVNESEEADEPVLKRGRSVKQPKDESESDDEDAEKAPAAIPKKRGRPGKSAIDAFFDGSD | soluble |
| MSLDRFVVTYRIVAEDEADAAARAASIALEDTVEIPRDVVPAGYVEDVVLGRVESVTARGGGVWTALIGYHVDAVGRELPQLLNVILGNASILRGVKAVDLAPDAALAERFPGARFGAAGVRRLTGRASGGFVCPVIKPQGSSAETLARLCYLSAVAGADIVKEDHGLANQDAAPFRERIGACAEAVGRANAERRDQGDTTQALYFANLCGPPHQLRDQAYYAKESGAHGILLIPGLHGFDAMFELAQDPDFDLPIMAHPSHLGPYVLSPDHGYGHGMLFGQLMRLAGADISVFPNHGGRFGFSVDECEEIVRACRDPEGLGPAILPSPGGGMSPERLPDMMAQYGEDCVYLLGGSLLRAGDRIGELIAEMRAALSGRDEGHHHHHH | soluble |
| MSLKGRPIKEFSLVMDLSQAKKGADKMGYMEDLRKRVGTRPLILPASVVIILNEQDEILLQKRLDGRWGLPGGLMELGESFEETAKREILEETGLTIKNVTFLDVFSGKDLYVKVENGDEFYAVTALFMTREVAGGIQMDPRESLDLQYIALDQFPPNVTRTSKIFLDRFMELKEGHHHHHH | soluble |
| MSQFDLTPPSPAQRDALIAGLSDEEQRVLLHHGTEAPFCGVFLDNKLDGVYTCRLCGLPLFRSNAKFDSGTGWPSFFAPYDPAHVREIRDTSYGMVRTEIVCARCDSHLGHVFPDGPPPTGERHSLNSVSLAFTEDGQPLPNPLQRAGAETQPA | soluble |
| MSIQKNTSTTSSSTLLDLIVIGGGINGAGIAADAAGRGLSVGLYEANDFASATSSASSKLIHGGLRYLEHYEFRLVSEALAEREVILRKAPHVALPMRFRLPHRPFLRPAWMIRCGLFLYDNLGKRTTLPGSKTVNLAKSGLLKPEMKTGFEYSDCWVDDARLVLLNVMAARENHAEVRNYCRVEKAHRENGVWHVTIHDVTTDQRFERKAKALVNAAGPWVKQFFDEGLEQTSPRNIRLIKGSHIVVPRIHNEPQAYILQNKDNRIVFMIPYLDKFSIIGTTDVEYKGDPREVAISDDEVDYLIDIVNQHFVHQLTREDVVWTYSGVRPLCDDESDSPQAITRDYTLELDAEYDQAPLLSVFGGKLTTYRKLGEAAMKKLEPYLPQMGGNWTANQTLPGGNFSCTREQLAKQIHAKYSWAPQALILRYVTQFGTQTWDLMEGASSEADLGQAFSEQAGGVYQREIDYLMNHEMALTDEDILWRRTKLGLYMNDEEKQALADYLKEKLQQKVVNLSQVSLEHHHHHH | soluble |
| MGSDKIHHHHHHGTISHSVEPGDNLYNLAARYMGNPHAWPDIQKLNHISNPHRLKPGTSLLIPKVSSTVTASFVHGEAWLVDDAGNTIKRIAHGDQLNEGDIVRTGQHSYLSLEFADHSVARILSNTHVRLDRIKESGLVPQGQRVIYLEQGNMDVSVTPAPKCNSQHFKVITPQAVAAVRGTRFSVGVGSVSATSVTQGKVEMQPPQPGKSRSGKMLQAGQGIAASGNGLGEVQPLLAAPDLSQLPSMLPEPELLQFDWPAVNGGSEYQYRIAQDEGMEQVLWNAASYSASATLPSLQDGEYLLAVRALDSYGIPGYEAQHRFIIHSHPSSPWLLSPQQGQPIDGNGILRCTPVEGAQGYHLQIATDDEFRELVVDSGPLDRCQYQLASLAEGDYYWRVASVNAEEEGRLGPYSQPASLTVSQDAHTLPIIAGEAYWTSTLQDARYIAQISRSPRFDTLVAEQELDSPRINIQSLPAGRYYVRLATRLENDTGPFSDARIIEVEHEDNGMDRTWFDKPRS | not soluble |
| MSLKAAVYEGKKAIKMTELPTPKAGPNDVVIQNIYAGICGSDVAVYNHGSGTGHKIETDHEFGHEAVSKVVEVGDDVHDFKIGDRVYPYPLLARGDPSRAGSMGGFSEYILIPNAKLNRQLYLVPKEIDNHVAAMIEPFTVGTRAAKQTRPDKNDNAIVYGTGTIGMAAAVALKHLGVKQVMLVDLSDYRLNVAKELGFLTVNSSRDDVRSQAIEAFGKAEYSLHGEAPDTQIFLDAAGHNSILEDFLQFGPVGSRFVTVGVNNSKPQIDFLELIFGSKSVGGSGGYRPEDVQTVFEIMKERQSDLRKMVSQEFDWQDLEKGIQTATDTTISEKVLINYHEGHHHHHH | soluble |
| MKKYTEMTKDELMQEKTALEAEYEKIKNLGLSLDMSRGKPGADQLDLSLPMLDVLKSDSDMKSESGLDVRNYACLDGIPEAKALIAGMVGAKPEQAIVYGNSSLNIMYDQVARAFIFGLCGNTPWCKLDKVKFLCPVPGYDRHFAITEEFGVEMINIPMTEDGPDMDMVEKYVNNDASVKGIWCVPKYSNPQGVVYSDETVERFAKLKPAADDFRIFWDNAYTVHHLYDDKQAEIPNILELCEKEGNPDMVFEFCSTSKVTFPGAGVAGICTSEKNREDIKKRLTIQTIGHDKINQLRHARFFKDVDGIKAHMAKHAALIRPKFELVENILTDEIASRGIGTWVKPLGGYFFGFEALSGCAKEIVAKCKEAGVTMTGAGSPFPYKKDPDDSVIRIAPTYPSLDELKKAAEVFVIVTRLVSVNKLLEA | not soluble |
| GPGSMTERLSLSRDRINVLLLEGISQTAVEYFKSSGYTNVTHLPKALDKADLIKAISSAHIIGIRSRTQLTEEIFAAANRLIAVGCFSVGTNQVELKAARKRGIPVFNAPFSNTRSVAELVIGEIIMLMRRIFPRSVSAHAGGWEKTAIGSREVRGKTLGIVGYGNIGSQVGNLAESLGMTVRYYDTSDKLQYGNVKPAASLDELLKTSDVVSLHVPSSKSTSKLITEAKLRKMKKGAFLINNARGSDVDLEALAKVLQEGHLAGAAIDVFPVEPASNGERFSTPLQGLENVILTPHIGGSTEEAQERIGTEVTRKLVEYSDVGSTVGAVNFPQVQLPPRPTGTRFMHVHENRPGILNSLMNVFSHHHINIASQFLQTDGEVGYLVMEADGVGEASDAVLQEIREIPGTIRARLLY | soluble |
| MISGLSHITLIVKDLNKTTAFLQNIFNAEEIYSSGDKTFSLSKEKFFLIAGLWICIMEGDSLQERTYNHIAFQIQSEEVDEYTERIKALGVEMKPERPRVQGEGRSIYFYDFDNHLFELHAGTLEQRLKRYHE | soluble |
| SLPIDAVLPALRQALTTRHEAVLEAPPGAGKTTRVPLALLEETWLAGQTILMLEPRRLAARAAAERLASELGEKVGETVGYRIRLESCVGPKTRIEVVTEGILTRCLQDDPALEGVGLLIFDEFHVLPFA | not soluble |
| MGSDKIHHHHHHMSHKPSAEDKEKSKLTKEEWRDYTKTVWSIANTSHEDHPAVFPLEIPHRLTKLFSFYGETVLDPFAGTGTTARAAIPLGRRAICVDQNADYTEIIKKDCAKLRNGHGADFEPLVVVNGDSRKMDFVESDSVGLVVTSPPYWNKADYGDSKRNLGTIERYSDFIEGIRPVFEECYRILTPGRKLCVVTANVNQHTDHGLLTFPLATDFAVLLRQIGFVMINEIIWSKDATGGKWGSYGAQRPIFGSYPYPPNFLFKNVHEYILIFAKPPRTKTTGPKVQPYKKLVEGLTGGIMEPDSLPAYAQAFRQQ | not soluble |
| GGHTVPKPFNLSKGKRKHEEASDYVSTAEQVIAFYKRTPARYHLRSRQREMEGPSPVKMIKTKLTNPKTPLLQTKGRHRPV | soluble |
